The text below walks through data of US20240368668A1, “SUBSTRATES AND BIOMARKERS OF ADAMTS7” (The Broad Institute, Inc., priority 2021, published 2024).

Square brackets hold non-standard residues; d marks the D form. Ends that are not written are not given here.

In the first test the target is T1, mouse ADAMTS7 (Mus musculus, UniProt Q68SA9).
T1 construct: Full-length mouse Adamts7 1-1857 (Uniprot Q68SA9, WT or E373Q catalytic mutant); expressed in transfected cells; host or cells: Human Coronary Artery Smooth Muscle Cells (HCA-SMC, Lonza), adenovirus 50 MOI
T1 sequence (Q68SA9 221-1657): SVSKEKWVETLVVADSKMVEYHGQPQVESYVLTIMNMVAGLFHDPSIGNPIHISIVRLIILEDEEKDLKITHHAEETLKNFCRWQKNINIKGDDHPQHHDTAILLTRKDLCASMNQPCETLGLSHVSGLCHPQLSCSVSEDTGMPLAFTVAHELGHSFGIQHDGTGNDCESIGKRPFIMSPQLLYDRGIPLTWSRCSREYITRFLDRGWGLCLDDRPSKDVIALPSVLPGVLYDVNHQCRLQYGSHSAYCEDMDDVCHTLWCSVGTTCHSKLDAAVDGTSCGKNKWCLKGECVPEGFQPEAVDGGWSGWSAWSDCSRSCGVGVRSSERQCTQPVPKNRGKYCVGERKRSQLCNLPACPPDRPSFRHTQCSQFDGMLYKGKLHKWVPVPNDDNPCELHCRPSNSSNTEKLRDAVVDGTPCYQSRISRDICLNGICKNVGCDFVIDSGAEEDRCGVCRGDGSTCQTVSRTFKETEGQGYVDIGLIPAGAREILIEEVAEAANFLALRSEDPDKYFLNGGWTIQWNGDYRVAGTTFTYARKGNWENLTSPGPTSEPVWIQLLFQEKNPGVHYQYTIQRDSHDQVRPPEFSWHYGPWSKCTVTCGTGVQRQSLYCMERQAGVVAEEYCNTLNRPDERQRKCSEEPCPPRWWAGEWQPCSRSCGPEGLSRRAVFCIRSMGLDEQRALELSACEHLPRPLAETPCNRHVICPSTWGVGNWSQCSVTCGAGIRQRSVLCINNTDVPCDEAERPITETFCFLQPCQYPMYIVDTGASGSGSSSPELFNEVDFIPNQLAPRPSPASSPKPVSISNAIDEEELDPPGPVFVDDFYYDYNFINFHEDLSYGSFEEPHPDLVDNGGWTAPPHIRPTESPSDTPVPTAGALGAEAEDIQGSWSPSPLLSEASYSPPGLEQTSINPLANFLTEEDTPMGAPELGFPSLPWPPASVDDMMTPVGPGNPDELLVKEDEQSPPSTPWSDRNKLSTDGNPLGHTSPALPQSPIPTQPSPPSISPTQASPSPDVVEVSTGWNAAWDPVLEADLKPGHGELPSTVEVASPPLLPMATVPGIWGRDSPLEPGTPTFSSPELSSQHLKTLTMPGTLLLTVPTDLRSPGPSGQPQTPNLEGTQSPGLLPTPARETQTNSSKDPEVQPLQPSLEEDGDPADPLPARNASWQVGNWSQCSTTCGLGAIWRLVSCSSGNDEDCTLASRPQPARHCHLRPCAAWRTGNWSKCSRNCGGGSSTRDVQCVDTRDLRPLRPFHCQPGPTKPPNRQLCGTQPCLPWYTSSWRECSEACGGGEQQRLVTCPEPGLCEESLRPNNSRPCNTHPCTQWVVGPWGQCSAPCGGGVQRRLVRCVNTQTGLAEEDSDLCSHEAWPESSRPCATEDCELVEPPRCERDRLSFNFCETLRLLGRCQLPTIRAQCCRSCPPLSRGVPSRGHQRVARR
Nature of the test: TMT10 TAILS N-terminomics, SMC2 experiment (process replicates, trypsin/AspN digest). The test is classed as cell-based. To be noted: SMC2_TAILS HC; log fold change of N-terminal peptide, Ad-mADAMTS7 WT over Luc. The source says:
ADAMTS7 Expression, Cell Culture and Preparation of the Secreted Proteins—Full-length mouse Adamts7 1-1857 (Uniprot Q68SA9, WT or E373Q catalytic mutant) with a carboxyl terminal 3xFLAG tag was used to generate custom adenoviruses as previously described. Adeno-CMV-Luciferase (Ad-Luc) from Vector Biolabs was used as a negative control. Human Coronary Artery Smooth Muscle Cells (HCA-SMC) were obtained from Lonza and expanded in Lonza SmGM-2 media in 15 cm tissue culture plates. Twenty-four hours before media collection, near confluent plates were transduced with 50 MOI adenovirus and switched to Lonza Basal SM media with volumes of 20 ml per 15 cm plate. Expression of the Flag tagged ADAMTS7 was confirmed from the media using western blot and detected using the anti-Flag M2-HRP antibody (Sigma, A8592). Collected media was processed by adding protease inhibitors (1 mM EDTA and 1 mM PMSF) and clarified by 500 g×5 min spin at 4 C to pellet cell debris. Cell media supernatants were then passed through a 0.22 um filter and kept chilled. Processed media was then concentrated 50-100× using 3 kDa Centricon Plus-70 filter unit, spun at 3,500 g×60 min at 4 C. Approximately 10% of the processed, concentrated media was set aside for total secretome proteolytic analysis. The remaining 90% of the processed, concentrated media was buffer exchanged into 50 mM HEPES pH 8.0, 150 mM NaCl (2×50 ml) using the 3 kDa Centricon Plus-70 filter unit and concentrated to >2 mg/ml to serve as input for the TAILS experiment. Secretome and TAILS input samples were stored at −80° C.
For the first experiment, referred to as SMC1, 120 ml of media from 6×15 cm dishes was pooled from each condition (Luc, WT, EQ) and processed to produce three separate inputs for the TAILS experiment. Luc, WT and EQ inputs from the SMC1 experiment were each divided into triplicate 400 ug samples to generate technical replicate TAILS data. For the second experiment, referred to as SMC2, media was processed separately in triplicate for each condition (Luc1, Luc2, Luc3, WT1, WT2, WT3, EQ1, EQ2, EQ3) using 60 ml of media from 3×15 cm dishes for each process replicate. Inputs from the SMC2 experiment used process replicates of 300 ug each to generate TAILS data. The third experiment used input from cultured Human umbilical vein endothelial cells (HUVEC) from Lifeline Cell Technology grown in VascuLife Media and transduced in Lifeline Basal EC (+bFGF2 10 ng/ml). The HUVEC experiment used the same strategy as the SMC2 experiment, with 40 ml of media from 2×15 cm dishes for each process replicate and used 200 ug each to generate TAILS data. Inputs for process replicate experiments were restricted to the lowest concentration from the 9 parallel samples for SMC2 or HUVEC.
TMT10 isotopic labeling and negative selection of non-labeled peptides-Sample preparation was performed based on the TAILS protocol from the Overall lab with some modifications. From a single experiment, nine parallel protein samples in 50 mM HEPES pH 8.0, 150 mM NaCl were separately denatured with guanidinium chloride (Sigma, G4505) to reach a final concentration of 2.5M guanidinium chloride and 250 mM HEPES and incubated at 65° C. for 15 min. Reduction was achieved through addition of tris(2-carboxylethyl) phosphine (TCEP) at a final concentration of […] and incubated at 65° C. for 45 min. Alkylation reaction was performed with addition of iodoacetamide (IAA, Sigma, A3221) to a final concentration of 10 mM IAA for 15 min at room temperature in the dark. Following denaturation, reduction and alkylation steps, ten percent of each of the nine parallel protein samples was removed and combined to serve as a pooled reference. Isobaric tags were added to free amine groups using the TMT10plex Isobaric Mass Tagging Kit (ThermoFisher, 90113) with TMT channels randomly assigned to the nine samples and TMT 131 assigned to the pooled reference. […]
“LOXL1_219 (VASAGVIYPYQPR; listed as Homo sapiens)” came in with a logFC.mWT.over.Luc of 1.56.
As for “LOXL2_37 (FQQPAPEYHQPQAPANVAKIQLR; listed as Homo sapiens)”, the logFC.mWT.over.Luc is listed as 3.27.
As to “LOXL2_38 ([code q]QPAPEYHQPQAPANVAKIQLR; not fully specified; listed as Homo sapiens)”, the logFC.mWT.over.Luc was found to be 1.74.
In the case of “LTBP1_393 (LTATNFR; listed as Homo sapiens)”, the logFC.mWT.over.Luc worked out at 6.60.
Same read-out and setting: as for “LTBP1_540 (HQQVIPHVYPVAAKTQLGR; listed as Homo sapiens)”, the figure is 1.82.

Staying with this test, now noted: SMC2_TAILS HC; log fold change, mWT over Luc.
In turn, “AEBP1_37 (FLEGFLSELEPEPR; listed as Homo sapiens)” yielded a logFC.mWT.over.Luc of 3.21.
“CCDC80_66 (LEEPNLQPLQR; listed as Homo sapiens)” displayed a logFC.mWT.over.Luc of 2.08.
On to “EFEMP1_124 (AVAGPEMQTGR; listed as Homo sapiens)”, for which the logFC.mWT.over.Luc was 2.81.
“EFEMP1_125 (VAGPEMQTGR; listed as Homo sapiens)” showed a logFC.mWT.over.Luc of 1.43.
On to “FBLN2_259 (ALGPPAPVQAKAR; listed as Homo sapiens)”, for which the logFC.mWT.over.Luc is 1.61.
“FBLN2_260 (LGPPAPVQAKAR; listed as Homo sapiens)” showed a logFC.mWT.over.Luc of 1.98.
“FBN1_29 (LEAGNVKETR; listed as Homo sapiens)”: the logFC.mWT.over.Luc is listed as 3.33.
Still for that read-out and setting: as for “FBN1_53 (LKGPNVCGSR; listed as Homo sapiens)”, the figure is 4.64.
In the case of “FLNA_1285 (LTQTGGPHVKAR; listed as Homo sapiens)”, the logFC.mWT.over.Luc was 4.37.
The substance “FN1_36 (MVQPQSPVAVSQSKPGCYDNGKHYQINQQWER; listed as Homo sapiens)” displayed a logFC.mWT.over.Luc of 3.59.
Turning to “FN1_40 (QSPVAVSQSKPGCYDNGKHYQINQQWER; listed as Homo sapiens)”, the logFC.mWT.over.Luc is recorded as 2.60.
“FN1_1143 (LTPGVEYVYTIQVLR; listed as Homo sapiens)” showed a logFC.mWT.over.Luc of 2.31.
Same read-out and setting: under “FN1_1656 (SSSPVTGYR; listed as Homo sapiens)” stands 1.20; under “GSN_413 (HIANVER; listed as Homo sapiens)”, 1.91.
In the case of “HSPG2_275 (LLPGSVR; listed as Homo sapiens)”, the logFC.mWT.over.Luc stood at 1.74.
For the substance “HSPG2_2331 (ANLAYPAGSTQPIR; listed as Homo sapiens)”, the logFC.mWT.over.Luc was found to be 1.72.
As to “HSPG2_2333 (LAYPAGSTQPIR; listed as Homo sapiens)”, the logFC.mWT.over.Luc came to 1.19.
As for “IGFBP3_31 (SAGLGPVVR; listed as Homo sapiens)”, the logFC.mWT.over.Luc came to 2.12.
“IGFBP3_32 (AGLGPVVR; listed as Homo sapiens)” yielded a logFC.mWT.over.Luc of 4.68.
Turning to “IGFBP7_101 (AAGGPGVSGVCVCKSR; listed as Homo sapiens)”, the logFC.mWT.over.Luc is listed as 2.53.
On the same count and under the same terms, under “LOX_58 (LSLGSQYQPQR; listed as Homo sapiens)” stands 1.68; under “LOX_123 (HWFQAGYSTSR; listed as Homo sapiens)”, 1.37; under “LOX_124 (WFQAGYSTSR; listed as Homo sapiens)”, 3.35.
On the same count and under the same terms, as for “LOX_126 (QAGYSTSR; listed as Homo sapiens)”, the figure is 2.77.
